Target: the molecule itself
Experiment: native gel or EMSA

B1: wild-type GstA (glutathione S-transferase, PP_1162) of Pseudomonas putida KT2440 (enzyme, UniProt Q88NP5 1-209, looked up)
chain: MSNPIKLYNFPKSGHAHRIELMLSLLNLPTELVFVDLAKGAHKQPDFLALNPFGQVPVIDDNGTVIADSNAILVYLAKKYDNGTWLPEEPAAAARVQRWLSVAAGPLAFGPAAARLVTVFGASFNTDEVISRAHTLLKVIDAELANTPFLTGSTPTIADIANYSYIAHAPEGNVSLEPYANVRNWLARIEALPRFVPMPRTVIGLQTHA
stoichiometry N: 2

— PMC10656745 (ACS synthetic biology, 2022)
